From patent US20110129488A1, “IMMUNOTHERAPY COMPOSITIONS FOR THE TREATMENT AND PREVENTION OF AMYLOIDOSIS” (MEDIVET PHARMA, S.L., priority 2008, published 2011)
Where no end group is shown, it is not given here.

What was measured:
Abeta 1-40 peptide = Abeta 1-40 peptide (Canis lupus familiaris, UniProt Q28280); test: Anti-Abeta IgG titration (ELISA) of serum from immunized rabbits; format: in vivo, rabbit
Experimental: To design a veterinary vaccine composition that generates a high level of high affinity antibodies with cross reactivity to the soluble Abeta 1-40 peptide and the plaques in the CNS of dogs with CDS, the relative immunogeneicity of the synthesized sequences of example 1 were characterized separately. To do that, SEQ ID NO 1 and SEQ ID NO 3 were administered conjugated with KLH and mixed with 1 mg of Alum (Sigma, St Louis, U.S.A.) an adjuvant of general veterinary use. The relative immunogenicity of the two peptide sequences was compared according to standard titration of the immune products generated.
Experiments were performed in adult female New Zealand White rabbits weighing between 1.5-2 kg at the beginning of the study. They were kept on a 12 h light/12 h dark cycle and housed with free access to food and water. All animals were manipulated according to the European legislation (86/609/EEC) for animal handling and experimentation. Procedures were approved by the Ethic Committee of the Universitat de Barcelona, under supervision of the Generalitat de Catalunya; all efforts were made to minimize animal suffering and to use only the number of animals necessary to produce reliable scientific data.
Rabbits were subcutaneously immunized with 100 μg of peptide from either: a) SEQ ID NO 3 conjugated with KLH and 1 mg Alum used as adjuvant (n=2); b) SEQ ID NO 1 conjugated with KLH and 1 mg Alum used as adjuvant (n=2); or c) KLH and 1 mg Alum (no peptide n=2). The immunization protocol consisted of a dose subcutaneously delivered up to six sites near the back of the neck, and repeated at days 11, 21, 31 and 41.
Samples of serum were collected from each rabbit at days 0, 21, 31 and 51. Each time, 5 ml blood samples were collected from the ear marginal vein in plastic tubes with no additive. At day 71 rabbits were anaesthetized and exanguinated. Blood samples were then kept at room temperature (RT) for 30 min, afterwards they were centrifuged for 10 min at 3000 rpm. Supernatants were collected as serum samples, aliquoted and stored at −80° C.
Titration of serum samples to detect the presence of antibodies that had been raised by SEQ ID NO 1 and SEQ ID NO 3 was performed by Enzime-Linked Immunosorbent Assays (ELISA) on 96-well plates developed by the biotin-avidin-peroxidase method. Plate sensitization was made overnight at 4° C. with 2 μg/ml of Abeta 1-40 peptide diluted in 50 mM NaHCO3, pH 9.6. […] After washing, specific binding was detected by incubation with Biotin conjugated anti-Rabbit IgG antibody (Sigma, St. Louis, Mo., U.S.A) diluted 1/20000 in TBS for 1 hour at RT. […] Plates were densitometrically analyzed at 450 nm with a Tecan Sunrise Absorbance Reader apparatus (Tecan Iberica, Madrid, Spain). […]

[1] = biological target: T1, canine Abeta 1-40 peptide (Canis lupus familiaris, UniProt Q28280); test: ELISA titration of affinity-purified antibodies from rabbit serum; format: binding, dog
T1 construct: made in house; host or cells: chemical synthesis (Fmoc solid phase), no expression host
T1 sequence (Q28280 7-46): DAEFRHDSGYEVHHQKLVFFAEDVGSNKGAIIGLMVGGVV
From the text: Antibody purification was made by affinity chromatography in columns of 4B Sepharose activated with BrCN (GE healthcare 15gr) according to standard procedures. Synthetic Abeta1-40 peptide (SEQ ID NO 1) was linked to the BrCN and used as antigen for the affinity purification of antibodies. Anti-Abeta28-40 antibodies were purified from rabbit serum samples presenting the highest level of titers, i.e. serum samples collected on day 31 after immunization (example 2). The same was true for serum samples used for purification of anti-Abeta 1-40 antibodies. Purified antibodies were firstly eluted with an acid solution of 100 mM glycine in PBS (pH 2.5) and, then with a basic solution of 100 mM glycine and 4 M urea in PBS (pH 9)
The purified antibodies were quantified by ELISA on 96-well plates developed by the biotin-avidin-peroxidase method. Plate sensitization was made overnight at 4° C. with […] of canine Abeta 1-40 peptide diluted in 50 mM NaHCO3 pH 9.6. The ELISA procedure was then carried out as explained in example 2.

[2] = biological target: T1, canine Abeta 1-40 peptide; test: Anti-Abeta IgG titration (ELISA) of serum from immunized dogs; format: in vivo, dog
Experimental: To validate the immunogenicity of the peptide according to the present invention, dogs were immunized with the synthesized Abeta 28-40 peptide (SEQ ID NO 3) and antibody generation was assessed in serum samples by ELISA. To do that, the peptide fragment was administered conjugated with KLH and mixed with 1 mg Alum (Sigma, St. Louis, Mo., U.S.A.), an adjuvant of general veterinary use. The immunogenicity of the Abeta28-40 peptide was compared versus pre-immune serum according to standard titration of the immune products generated.
Male and female dogs of various breeds, sex and ages certified by their medical records from the veterinary hospital Ars Veterinaria of Barcelona, Spain, were used in this study. In all cases, pet owners formally informed approved the treatment of their dogs. All animals were treated according to European legislation on animal experimentation (86/609/EU), and procedures were approved by the Ethical Committee of the University of Barcelona. All efforts were made to minimize animal suffering and to use no more than the number of animals needed for reliable scientific data.
Dogs were subcutaneously immunized with either: a) 100 μg per animal of SEQ ID NO 3 conjugated with KLH and 1 mg Alum used as adjuvant (n=2) or b) 100 μg per animal of KLH and 1 mg Alum (no peptide n=2). […]

[3] = system: Aβ 1-40 and Aβ 1-42, diffuse plaque; details: aged beagles (8.4-12.4 years) immunized for 2.4 years; several cortical regions; cited from earlier work
aged beagles = aged beagles (8.4-12.4 years) immunized for 2.4 years; cited from earlier work

Sequence of Abeta 1-40 peptide (Q28280 7-46 limits assumed): as the sequence (Q28280 7-46) above

serum dilution that presents half of the maximal binding (B1/2) (Abeta 1-40 peptide; 100 μg peptide s.c. conjugated with KLH + 1 mg Alum, repeated days 11, 21, 31, 41, serum of day 31)	immunogenic response compared with SEQ ID NO 1 (Abeta 1-40 peptide; comparison of B1/2 dilutions of day 31)	specific production of antibodies in serum samples (Abeta 1-40 peptide; peptide-KLH + Alum s.c., from day 21 following the first immunization)	day of highest levels of immunization (Abeta 1-40 peptide; peptide-KLH + Alum s.c., serum days 0, 21, 31, 51)	titers of anti-Abeta antibodies in the basic elution ([1]; basic elution (100 mM glycine, 4 M urea, pH 9), slightly lower than the acid elution)	titers of specific antibodies against canine Abeta1-40 in purified sera ([1]; day 31 serum of immunized rabbits, affinity purified on Abeta1-40 column)	specific production of anti-Abeta antibodies in serum samples ([2]; 100 μg per animal conjugated with KLH + 1 mg Alum s.c., repeated days 31, 61, 75, day 30 after first immunization)	day of highest values of optic density ([2]; peptide-KLH + Alum s.c., serum days 0, 30, 60, 74, 90)	Substance	extent of diffuse plaque accumulation [3]	levels of soluble and insoluble Aβ 1-40 and Aβ 1-42 [3]	measures of learning, spatial attention, or spatial memory (aged beagles)
1/611	higher immunogenic response	detected	31 days	high titers	High titers	detected	74 days	KGAIIGLMVGGVV (also: KLH conjugate) [SEQ ID NO 3, canine Abeta protein amino acids 28 to 40; tested conjugated with KLH plus Alum]			
								fibrillar Aβ (1-42): fibrillar Aβ (1-42) formulated with aluminum salt (Alum), Head et al. 2008	significantly decreased	significantly decreased	no improvement
